Earlier results as cited in paper PMC5807066.
“And” between values parts separate entries of the source, which are not always exact repeats. Equal values may be shown once. Read-outs that look alike come from different tables or passages of the source.

What was measured:
[1] = target: SecA:SecYEG complex (Escherichia coli) (UniProt C4ZRJ3)
SecA (Escherichia coli) [2] = target: SecA (Escherichia coli) (UniProt P10408)
[3] = target: MBP (unfolded) (Escherichia coli) [MBP: P0AEX9]
SecA (Escherichia coli) [4] = target: SecA (Escherichia coli) (UniProt P10408); remark: listed apart in the source
SecA (Escherichia coli) [5] = target: SecA (Escherichia coli) (UniProt P10408); remark: listed apart in the source

Chain of SecA (P10408 whole entry): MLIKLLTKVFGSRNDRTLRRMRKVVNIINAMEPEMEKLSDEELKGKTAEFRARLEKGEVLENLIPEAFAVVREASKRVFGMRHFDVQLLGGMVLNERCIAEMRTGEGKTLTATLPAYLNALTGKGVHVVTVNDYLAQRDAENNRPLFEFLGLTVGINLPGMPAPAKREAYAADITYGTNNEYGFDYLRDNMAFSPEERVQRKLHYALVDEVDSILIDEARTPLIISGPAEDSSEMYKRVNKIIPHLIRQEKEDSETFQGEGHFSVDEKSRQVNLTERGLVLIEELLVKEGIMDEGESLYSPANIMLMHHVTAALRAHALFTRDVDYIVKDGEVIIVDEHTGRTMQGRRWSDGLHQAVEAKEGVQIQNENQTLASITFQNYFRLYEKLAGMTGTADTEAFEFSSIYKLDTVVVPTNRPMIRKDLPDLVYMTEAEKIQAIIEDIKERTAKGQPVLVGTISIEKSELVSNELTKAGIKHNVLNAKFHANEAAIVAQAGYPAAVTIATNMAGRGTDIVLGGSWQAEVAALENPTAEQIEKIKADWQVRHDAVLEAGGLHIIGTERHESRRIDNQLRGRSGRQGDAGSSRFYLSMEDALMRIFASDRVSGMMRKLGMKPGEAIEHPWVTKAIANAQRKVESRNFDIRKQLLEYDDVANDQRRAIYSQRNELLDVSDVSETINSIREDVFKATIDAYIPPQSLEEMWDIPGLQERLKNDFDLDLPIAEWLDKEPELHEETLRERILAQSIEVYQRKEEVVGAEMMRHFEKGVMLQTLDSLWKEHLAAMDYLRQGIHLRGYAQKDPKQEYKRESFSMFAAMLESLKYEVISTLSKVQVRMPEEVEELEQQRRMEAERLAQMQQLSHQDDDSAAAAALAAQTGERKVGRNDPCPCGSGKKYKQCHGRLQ

For PhoA precursor (from UniProt P00634), the Kd [1] is given as 0.23 µM.
For SecA (from UniProt P10408), the Kd (SecA (Escherichia coli) [2]) is given as 0.1 µM and 1 µM.
In the case of SecB (from UniProt P0AG86), the Kd [3] is listed as 0.03 µM, the Kd (SecA (Escherichia coli) [4]) is listed as 2 µM and the Kd (SecA (Escherichia coli) [5]) is listed as 4 µM.
